What all share (experiment): yeast display cell ELISA
On the technique in general: An ELISA detects its analyte on a solid surface through an enzyme-linked reagent.

Assay [1] deals with T1, hCD22 fragment Bin 3, IVR3 (aa211-317), displayed on yeast cells (human, UniProt P20273 230-336).
T1 construct: Range is counted on the mature ECD, not on the UniProt entry; on P20273 it would be 230-336 (my arithmetic); not shown: Aga2-HA display fusion partner of vector pPNL6; MYC tag
T1 sequence (looked up): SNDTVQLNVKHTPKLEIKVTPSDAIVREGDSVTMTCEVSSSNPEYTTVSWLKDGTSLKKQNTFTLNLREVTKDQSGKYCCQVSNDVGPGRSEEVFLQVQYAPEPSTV
How it is done: (§1) The YSD vector (pPNL6) was from The Pacific Northwest National Laboratory, USA. […] The HRP activity was assayed with substrate TMB (tetramethyl benzidine) according to the manufacture’s conditions and read at OD₄₅₀.
(§2) The wells that gave rise to OD₄₅₀ above 0.25 were highlighted, indicating significant antibody-antigen interactions. All the sdAbs tested except hCd22_1ug-14 were assigned to specific Bin(s).

Assay [2] has as its target T2, hCD22 fragment Bin 2, IVR2 (aa111-230), displayed on yeast cells (human, UniProt P20273 130-249).
T2 construct: range 111-230; Range is counted on the mature ECD, not on the UniProt entry; on P20273 it would be 130-249 (my arithmetic); not shown: Aga2-HA display fusion partner of vector pPNL6; MYC tag
T2 sequence (looked up): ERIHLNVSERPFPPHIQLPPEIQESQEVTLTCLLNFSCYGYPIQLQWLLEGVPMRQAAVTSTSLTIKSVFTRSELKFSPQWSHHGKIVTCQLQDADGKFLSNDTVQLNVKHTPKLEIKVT
How it is done: as §1, §2

The target of assay [3] is T3, hCD22 fragment Bin 4, IVR4 (aa303-405), displayed on yeast cells (human, UniProt P20273 322-424).
T3 construct: Range is counted on the mature ECD, not on the UniProt entry; on P20273 it would be 322-424 (my arithmetic); also called CD22 Sub-Domain 4; not shown: Aga2-HA display fusion partner of vector pPNL6; MYC tag
T3 sequence (looked up): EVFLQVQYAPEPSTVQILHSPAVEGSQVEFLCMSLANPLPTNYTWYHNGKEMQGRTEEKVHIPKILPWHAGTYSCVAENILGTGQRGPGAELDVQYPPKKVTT
The protocol:
as §1, §2

For assay [4], the target named is T4, hCD22 fragment Bin 1, IVR1 (aa1-135), displayed on yeast cells (human, UniProt P20273 20-154).
T4 construct: range 1-135; Range is counted on the mature ECD, not on the UniProt entry; on P20273 it would be 20-154 (my arithmetic); also called CD22 Sub-Domain 1; not shown: Aga2-HA display fusion partner of vector pPNL6; MYC tag
T4 sequence (looked up): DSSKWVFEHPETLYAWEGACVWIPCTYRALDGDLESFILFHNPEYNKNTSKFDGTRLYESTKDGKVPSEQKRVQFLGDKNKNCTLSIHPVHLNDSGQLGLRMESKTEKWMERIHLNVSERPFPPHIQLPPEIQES
The protocol:
as §1, §2

The target in assay [5] is T5, hCD22 fragment Bin 5, IVR5 (aa391-490), displayed on yeast cells (human, UniProt P20273 410-509).
T5 construct: range 391-490; Range is counted on the mature ECD, not on the UniProt entry; on P20273 it would be 410-509 (my arithmetic); not shown: Aga2-HA display fusion partner of vector pPNL6; MYC tag
T5 sequence (looked up): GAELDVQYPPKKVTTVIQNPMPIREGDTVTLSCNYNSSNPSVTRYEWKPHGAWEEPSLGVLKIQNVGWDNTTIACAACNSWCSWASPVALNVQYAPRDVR
The protocol:
as §1, §2

B1: hCD22pas-24 (VHH)
VHH: QVQLVESGGGLVQAGGSLRLSCSASGITSSINSMGWHRQAPGKQRELVASIGRGGSGSTKYADSGKGRFLISRDNNKNILFLEMNSLKPEDTADYYCLEVTTDLSSYWGRGTQVTVSS
modifications: single biotin at the VHH C-terminal (biotinylation signal sequence)
notes: llama VHH, expressed in E. coli TG1, IMAC purified, monomeric SEC fraction; also called VHH # 26; 8-hCD22 pas-24
On to B1, for which the binding result in assay [1], in assay [2], in assay [3], in assay [4] and in assay [5] was “no binding (tested: OD450 not above 0.25; sdAb 250 nM)” throughout.

B2: hCD221ug-13 (VHH)
VHH: QVQLVESGGGLVQAGDSLRLSCAGSGGSFSSVTMAWFRQAPGKDREFVAAITWSSPSTYYADSVKGRFTISRDNAKNTVYLQMNSLKPEDTAVYYCAGGRTGRGTSADTDEYNYWGQGTQVTVSS
modifications: single biotin at the VHH C-terminal (biotinylation signal sequence)
notes: llama VHH, expressed in E. coli TG1, IMAC purified, monomeric SEC fraction; also called VHH # 21; 1-hCD22 1ug-13
With B2, the binding result in assay [1], in assay [2], in assay [4] and in assay [5] was “no binding (tested: OD450 not above 0.25; sdAb 250 nM)” throughout.

B3: hCD221ug-61 (VHH)
VHH: QVQLVESGGGLVQAGGSLRLSCAASMSSFSQYVMYWYRQAPGKQRELVATITSYSNTNYADSVKGRFTISRDNAKSIAYLQMDSLKPEDTAVYYCNAQYGSTFIRNHWDDWGQGTQVTVSS
modifications: single biotin at the VHH C-terminal (biotinylation signal sequence)
notes: llama VHH, expressed in E. coli TG1, IMAC purified, monomeric SEC fraction; also called VHH # 14; 3-hCD22 1ug-61
In the case of B3, the binding result in assay [1], in assay [2], in assay [3], in assay [4] and in assay [5] was “no binding (tested: OD450 not above 0.25; sdAb 250 nM)” throughout.

B4: hCD221ug-80 (VHH)
VHH: QVQLVESGGGLVQPGGSLRLSCTFSGFTLDYYVMVWFRQAPGKEREAVSCITSDGVTYYADSVKGRFTISRDNAKNTVYLQMNRVKPEDTAVYYCAVDKPFYDGGIQYTCPVDFDSWGQGAQVTVSS
modifications: single biotin at the VHH C-terminal (biotinylation signal sequence)
notes: llama VHH, expressed in E. coli TG1, IMAC purified, monomeric SEC fraction; also called VHH # 1; 2-hCD22 1ug-80
For B4, the binding result in assay [1], in assay [2], in assay [3] and in assay [5] was “no binding (tested: OD450 not above 0.25; sdAb 250 nM)” in each case.

B5: hCD22pas-32 (VHH)
VHH: QVQLVESGGGLVQAGGSLRLSCAVSGRIFRSYVLGWFRQAPGKERELVARIGWSDTYYADSVKGRFTISRDNAKNTVDLQMNSLKPEDTAVYYCAANSPPYGPQRDEFGYWGQGTQVTVSS
modifications: single biotin at the VHH C-terminal (biotinylation signal sequence)
notes: llama VHH, expressed in E. coli TG1, IMAC purified, monomeric SEC fraction; also called VHH # 15; 6-hCD22 pas-32
As for B5, the binding result in assay [1], in assay [2], in assay [3], in assay [4] and in assay [5] was “no binding (tested: OD450 not above 0.25; sdAb 250 nM)” throughout.

B6: hCD221ug-36 (VHH)
VHH: EVQLVDSGGGLVQAGGSLRVSCEASGITFSRAAMGWYRQRPGKERERVAVVNSDSSTIYADSVKGRFTISRDNAKNTVYLQMNSLEPEDTAVYYCWSPGFGSYWGQGTQVTVSS
modifications: single biotin at the VHH C-terminal (biotinylation signal sequence)
notes: llama VHH, expressed in E. coli TG1, IMAC purified, monomeric SEC fraction; also called VHH # 22; 4-hCD22 1ug-36
For the molecule B6, the binding result in assay [1], in assay [2], in assay [3], in assay [4] and in assay [5] was “no binding (tested: OD450 not above 0.25; sdAb 250 nM)” each time.

B7: hCD22pas-64 (VHH)
VHH: QVQLVESGGGLVQAGGSLRLSCAASGSTFSLNTMAWYRQAPGNQREYVAAASSDGYTNYADSVRGRFTISRDNDKNTMYLQMNSLRPEDTAVYYCTWGTGRFADYIYWGQGTQVTVSS
modifications: single biotin at the VHH C-terminal (biotinylation signal sequence)
notes: llama VHH, expressed in E. coli TG1, IMAC purified, monomeric SEC fraction; also called VHH # 25; 7-hCD22 pas-64
For B7, the binding result in assay [1], in assay [2], in assay [3], in assay [4] and in assay [5] was “no binding (tested: OD450 not above 0.25; sdAb 250 nM)” each time.

B8: hCD221ug-10 (VHH)
VHH: QVQLVESGGGLVQAGGSLSVSCTASESTFSIMMGWFRQAPGKQREMVAVINSAGSTNYADSAEGRFTISRDLAKKTVSLQMNSLKPEDTAVYYCYVDGYFGQGTQVTVSS
modifications: single biotin at the VHH C-terminal (biotinylation signal sequence)
notes: llama VHH, expressed in E. coli TG1, IMAC purified, monomeric SEC fraction; also called VHH # 23; 5-hCD22 1ug-10
In the case of B8, the binding result in assay [1], in assay [2], in assay [3], in assay [4] and in assay [5] was “no binding (tested: OD450 not above 0.25; sdAb 250 nM)” each time.
